# Reference: patent publication US20230340071A1 (published 2023)
# T1: human IL-2 receptor (IL-2Rβγc) on cells (human, UniProt P14784 27-551; P31785 23-369)
# T1 sequence 1: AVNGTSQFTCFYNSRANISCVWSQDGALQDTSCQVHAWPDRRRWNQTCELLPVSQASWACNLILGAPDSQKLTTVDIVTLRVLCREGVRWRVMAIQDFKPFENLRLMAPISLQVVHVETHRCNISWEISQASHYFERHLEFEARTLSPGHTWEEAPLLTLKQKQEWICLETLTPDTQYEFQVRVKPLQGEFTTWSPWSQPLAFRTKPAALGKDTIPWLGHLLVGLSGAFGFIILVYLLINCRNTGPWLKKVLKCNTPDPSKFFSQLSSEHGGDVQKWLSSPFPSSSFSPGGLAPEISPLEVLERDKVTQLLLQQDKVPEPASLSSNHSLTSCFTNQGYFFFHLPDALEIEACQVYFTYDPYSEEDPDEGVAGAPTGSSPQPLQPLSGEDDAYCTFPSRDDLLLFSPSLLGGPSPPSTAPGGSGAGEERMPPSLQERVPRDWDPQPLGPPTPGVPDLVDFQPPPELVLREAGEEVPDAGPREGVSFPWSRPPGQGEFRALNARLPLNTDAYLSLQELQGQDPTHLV
# T1 sequence 2: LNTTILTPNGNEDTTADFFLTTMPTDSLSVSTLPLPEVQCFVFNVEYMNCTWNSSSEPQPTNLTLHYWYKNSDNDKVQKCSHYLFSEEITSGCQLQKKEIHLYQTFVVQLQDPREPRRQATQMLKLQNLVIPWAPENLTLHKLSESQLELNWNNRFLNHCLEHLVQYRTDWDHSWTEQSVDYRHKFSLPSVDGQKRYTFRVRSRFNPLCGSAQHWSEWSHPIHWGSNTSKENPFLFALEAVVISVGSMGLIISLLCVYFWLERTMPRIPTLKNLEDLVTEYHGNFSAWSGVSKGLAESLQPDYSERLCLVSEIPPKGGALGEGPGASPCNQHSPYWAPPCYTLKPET
# T2: Biotinylated hIL2RB (UniProt P14784 27-240, biotinylated (site not stated))
# T2 chain: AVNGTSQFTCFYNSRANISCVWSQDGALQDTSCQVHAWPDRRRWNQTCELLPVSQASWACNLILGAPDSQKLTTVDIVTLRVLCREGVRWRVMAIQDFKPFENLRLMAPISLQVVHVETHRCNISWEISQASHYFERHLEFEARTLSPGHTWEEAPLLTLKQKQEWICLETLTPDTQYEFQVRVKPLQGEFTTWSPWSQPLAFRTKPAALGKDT
# T3: hIL-2RBG (biotinylated hIL2RG on the sensor with hIL2RB in solution) (UniProt P14784 27-240; P31785 23-262, biotinylated (site not stated))
# T3 chain 1: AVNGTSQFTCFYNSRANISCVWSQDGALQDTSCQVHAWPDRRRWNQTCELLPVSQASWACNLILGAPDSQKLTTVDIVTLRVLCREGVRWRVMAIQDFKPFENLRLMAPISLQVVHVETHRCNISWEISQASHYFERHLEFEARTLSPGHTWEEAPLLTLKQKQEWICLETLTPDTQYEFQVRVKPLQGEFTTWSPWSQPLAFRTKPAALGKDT
# T3 chain 2: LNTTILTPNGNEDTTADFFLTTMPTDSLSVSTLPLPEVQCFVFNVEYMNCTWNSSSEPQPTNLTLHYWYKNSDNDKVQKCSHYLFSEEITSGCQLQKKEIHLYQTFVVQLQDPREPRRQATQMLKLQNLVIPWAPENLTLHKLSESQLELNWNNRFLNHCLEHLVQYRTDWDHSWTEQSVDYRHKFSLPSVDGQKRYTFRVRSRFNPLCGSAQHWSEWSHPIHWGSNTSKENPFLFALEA
# T4: Biotinylated hIL2RG (human, UniProt P31785 23-262, limits assumed, biotinylated (site not stated))
# T4 construct: also called human common gamma receptor (hIL2RG); hIL-2Rγc
# T4 sequence: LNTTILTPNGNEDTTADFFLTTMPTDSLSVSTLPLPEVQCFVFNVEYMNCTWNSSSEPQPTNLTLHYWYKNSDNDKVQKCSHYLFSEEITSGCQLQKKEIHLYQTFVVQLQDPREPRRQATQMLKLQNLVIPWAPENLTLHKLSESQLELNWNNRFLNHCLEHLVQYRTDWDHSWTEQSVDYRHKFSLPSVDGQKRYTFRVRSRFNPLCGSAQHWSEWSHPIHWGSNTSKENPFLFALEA
# T5: hIL2RB-fc chimera (human, UniProt P14784 27-240)
# T5 construct: also called hIL2 receptor beta; hIL-2Rβ; not shown: Fc part of the bought chimera (captured on anti-human IgG Fc biosensors)
# T5 sequence: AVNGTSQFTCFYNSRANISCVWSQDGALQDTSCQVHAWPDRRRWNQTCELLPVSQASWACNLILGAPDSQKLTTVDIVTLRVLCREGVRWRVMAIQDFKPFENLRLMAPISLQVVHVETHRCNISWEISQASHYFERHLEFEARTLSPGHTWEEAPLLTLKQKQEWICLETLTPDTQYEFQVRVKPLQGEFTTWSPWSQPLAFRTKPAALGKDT
# T6: hIL2RG-fc chimera (human, UniProt P31785 23-262)
# T6 construct: also called hIL2G; hIL2 receptor gamma; not shown: Fc part of the bought chimera (captured on anti-human IgG Fc biosensors)
# T6 sequence: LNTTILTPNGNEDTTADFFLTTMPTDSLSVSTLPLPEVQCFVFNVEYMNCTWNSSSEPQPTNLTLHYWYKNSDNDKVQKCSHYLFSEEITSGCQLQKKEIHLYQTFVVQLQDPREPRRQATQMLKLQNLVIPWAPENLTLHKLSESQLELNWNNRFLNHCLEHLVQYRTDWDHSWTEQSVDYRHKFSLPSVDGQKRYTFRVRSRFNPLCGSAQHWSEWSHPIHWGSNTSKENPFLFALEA
# T7: mouse IL-2 beta receptor (mouse, UniProt P16297 27-240)
# T7 construct: also called mIL2RB; beta part of mIL2RBG
# T7 sequence (looked up): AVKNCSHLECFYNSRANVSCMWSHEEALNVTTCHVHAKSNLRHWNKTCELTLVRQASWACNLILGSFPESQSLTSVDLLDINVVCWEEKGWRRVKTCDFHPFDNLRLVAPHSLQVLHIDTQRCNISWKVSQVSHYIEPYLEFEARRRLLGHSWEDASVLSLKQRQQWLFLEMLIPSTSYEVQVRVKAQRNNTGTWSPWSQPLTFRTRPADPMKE
# Tests used:
# [1] = target: T1, human IL-2 receptor (IL-2Rβγc) on cells; assay: cell-based or functional assay
# Biotinylated hIL2RB = target: T2, Biotinylated hIL2RB; assay: BLI
# [2] = target: T3, hIL-2RBG (biotinylated hIL2RG on the …); assay: BLI competition, inhibition of hIL-2 binding
# Biotinylated hIL2RG = target: T4, Biotinylated hIL2RG; assay: BLI (Octet RED96), biotinylated hIL2RG on streptavidin sensors, 200 nM protein + 200 nM hIL2RB
# Procedure: Biotinylated hIL2RG molecules were immobilized to Streptavidin sensors (SA, ForteBio) at 2 μg/mL in binding buffer (10 mM HEPES, pH 7.4, 150 mM NaCl, 3 mM EDTA, 0.05% surfactant P20, 0.5% non-fat dry milk). After baseline measurement in the binding buffer alone, the binding kinetics were monitored by dipping the biosensors in wells containing 200 nM of protein and 200 nM of hIL2RB for 300 sec. Data were collected in an Octet RED96 (ForteBio) and processed using the instrument's integrated software.
# [3] = target: T1, human IL-2 receptor (IL-2Rβγc) on cells; assay: cell-based or functional assay; remark: listed apart in the source
# hIL2RB-fc chimera [4] = target: T5, hIL2RB-fc chimera; assay: BLI (Octet RED96e), hIL2RB-fc (AcroBiosystems) on anti-human IgG Fc sensors
# Procedure: (§1) For this purpose, sensors were soaked in samples containing 20 nM of hIL2RB-fc chimera (AcroBiosystems) for 300 sec. […] Finally, sensors were removed from the protein samples and dipped in buffer solutions to promote and measure dissociation (1500 sec). The buffer used to prepare all the samples and soak the sensors was HBS-EP+from GE Healthcare, which contains 10 mM HEPES, 150 mM NaCl, 3 mM EDTA and 0.05% v/v surfactant P20, pH 7.4. Data were acquired at 30° C. using an Octet RED96e system (ForteBio) and processed using the instrument's integrated software. Kinetics were fitted to a 1:1 binding model after subtracting a buffer signal baseline and the Kd values were calculated.
# hIL2RG-fc chimera [5] = target: T6, hIL2RG-fc chimera; assay: BLI (Octet RED96e), hIL2RG-fc (AcroBiosystems) on anti-human IgG Fc sensors
# Procedure: as §1, with “hIL2RG-fc” for “hIL2RB-fc”, “HBS-EP+ from” for “HBS-EP+from”
# [6] = target: T1, human IL-2 receptor (IL-2Rβγc) on cells; assay: cell-based or functional assay; remark: listed apart in the source
# hIL2RB-fc chimera [7] = target: T5, hIL2RB-fc chimera; assay: BLI (Octet RED96e), hIL2RB-fc (Symansis) on anti-human IgG Fc sensors
# Procedure: as §1, with “(Symansis)” for “(AcroBiosystems)”
# hIL2RG-fc chimera [8] = target: T6, hIL2RG-fc chimera; assay: BLI (Octet RED96e), hIL2RG-fc on anti-human IgG Fc sensors, 200 nM P3 + 200 nM hIL2RB-fc
# Procedure: (§2) All samples were prepared using HBS-EP+ buffer from GE Healthcare, which contains 10 mM HEPES, 150 mM NaCl, 3 mM EDTA and 0.05% v/v surfactant P20, pH 7.4. Data were acquired at 30° C. using an Octet RED96e system (ForteBio) and processed using the instrument's integrated software.
# mouse IL-2 beta receptor = target: T7, mouse IL-2 beta receptor; assay: BLI competition: mIL2RG on sensor, dilutions of P3 + 20 nM Neo-2/15; competitor Neo-2/15; read-out binding to mIL2RBG
# Procedure: as §2, with “HBS-EP+buffer” for “HBS-EP+ buffer”, “software. IC50 values were estimated from response vs antagonist concentration plots.” for “software.”
# hIL2RB-fc chimera [9] = target: T5, hIL2RB-fc chimera; assay: BLI competition: hIL2RG-fc on sensor, dilutions of P3 + 20 nM Neo-2/15 + 50 nM hIL2RB-fc; competitor Neo-2/15; read-out binding to hIL2RBG
# Procedure: as §2, with “HBS-EP+buffer” for “HBS-EP+ buffer”, “software. IC50 values were estimated from response vs antagonist concentration plots.” for “software.”
# hIL2RG-fc chimera [10] = target: T6, hIL2RG-fc chimera; assay: BLI (Octet RED96e), hIL2RG-fc (Symansis) on anti-human IgG Fc sensors, protein + 200 nM hIL2RB-fc
# Procedure: as §2
# hIL2RG-fc chimera [11] = target: T6, hIL2RG-fc chimera; assay: BLI (Octet RED96e), hIL2RG-fc on anti-human IgG Fc sensors
# Procedure: as §1, with “hIL2RG-fc” for “hIL2RB-fc”, “HBS-EP+ from” for “HBS-EP+from”
"Signaling Inhibition IC50 (1 nM hIL-2, pSTAT5, CD8+ T cells) [1] [nM]",Kd (Biotinylated hIL2RB) [nM],IC50 [2] [nM],binding result (Biotinylated hIL2RG),"Induced Signaling EC50 (pSTAT5, YT-1 CTLL-2 cells) [3] [nM]",Kd (hIL2RB-fc chimera [4]) [nM],Kd (hIL2RG-fc chimera [5]) [nM],Binder,also measured
0.41,< 1,83,no binding (tested: 200 nM),,,,"Protein 6 (P6) (designed binder, P5 with 'Y8F' (printed; P5 has H at 8) and K33E; N-terminal 6xHis tag and thrombin site in the expression vector) PKKKIQLFAEHALYDAEMILKIVKTNSPPAEEELEDYAFNFELILEEIARLFESGDQKDEAEKAKRMKEWMKRIKTTASEDEQEEMANKIRKILEEWIRS","Signaling Inhibition IC50 (1 nM hIL-2, pSTAT5, CD4+ T cells) [1]: 1.84 nM; Signaling Inhibition IC50 (1 nM hIL-2, pSTAT5, all T cells) [1]: 0.83 nM"
,,,,557,17,1190,"Protein 1 (P1) (designed binder, N-terminal 6xHis tag and thrombin site in the expression vector) PKKKIQLHAEHARYDAEMILNIVKTNSPPAEEKLEDYAFNFELILEEIARLFESGDQKDEAEKAKRMKEWMKRIKTTASEDEQEEMANAIITILTSWIRS",
,,,,,,,"Protein 3 (P3) (designed binder, P1 with H8Y and K33E; N-terminal 6xHis tag and thrombin site in the expression vector) PKKKIQLYAEHARYDAEMILNIVKTNSPPAEEELEDYAFNFELILEEIARLFESGDQKDEAEKAKRMKEWMKRIKTTASEDEQEEMANAIITILTSWIRS","Binding Inhibition IC50 (inhibition of hIL-2 pSTAT5 signaling, human pan T cells, 0.1 nM hIL2) [6]: 1.4 nM; Binding Inhibition IC50 (inhibition of hIL-2 pSTAT5 signaling, human pan T cells, 1 nM hIL2) [6]: 11.7 nM; Binding Inhibition IC50 (inhibition of hIL-2 pSTAT5 signaling, human pan T cells, 10 nM hIL2) [6]: 863 nM; Kd (hIL2RB-fc chimera [7]): 0.2 nM; binding result (hIL2RG-fc chimera [8]): no binding (tested: 200 nM); IC50 (mouse IL-2 beta receptor): > 200 nM; IC50 (hIL2RB-fc chimera [9]): 12.5 nM"
77.7,12,100,no binding (tested: 200 nM),,,,"Protein 5 (P5) (designed binder, N-terminal 6xHis tag and thrombin site in the expression vector) PKKKIQLHAEHALYDAEMILKIVKTNSPPAEEKLEDYAFNFELILEEIARLFESGDQKDEAEKAKRMKEWMKRIKTTASEDEQEEMANKIRKILEEWIRS",
,,,,,,277,"Neo-2/15 (designed binder, Proteins were expressed in E. coli with an N-terminal 6xHis tag and thrombin site; also called Neoleukin-2/15) PKKKIQLHAEHALYDALMILNIVKTNSPPAEEKLEDYAFNFELILEEIARLFESGDQKDEAEKAKRMKEWMKRIKTTASEDEQEEMANAIITILQSWIFS",Kd (hIL2RG-fc chimera [10]): 277 nM
,,,,426,21,,"Protein 2 (P2) (designed binder, N-terminal 6xHis tag and thrombin site in the expression vector) PKKKIQLHAEHALYDAEMILKIVKTNSPPAEEKLEDYAFNFELILEEIARLFESGDQKDEAEKAKRMKEWMKRIKTTASEDEQEEMANRIRKILEEWIRS",binding result (hIL2RG-fc chimera [11]): no binding (tested: 5000 nM (highest concentration tested))
